Drawing on the NTF2 design screens of Basanta et al. (2020), this text covers protease stability score for 47 sequences.

A short description of this data set: protease stability score; higher = more stable; yeast display proteolysis, trypsin and chymotrypsin.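 Note: relative to predicted unfolded state with 0 unfolded-like and 1 meaning tenfold more protease.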
In the case of “SEETEYLRLAIELILNETRTGDEHTFMENADPDAKLNFNGVHLHGMEEVTRRMHELWEELRIRHFELHDVSHVDGRLYVHIRLDVDVNGQKRTFRSEIVSEKINGKWYYKYMTIV”, the protease stability score is 1.27.

With “SEETKEKHDFVEEWRHFLETGDEHELTRMIDPNVRVIINGQEHHGREAFEEMLKRIDVIHHVVIRKERSINGVIRLNFEVDGVINGRRHRTEFHIIVLKINGRWLIHQISIH”, the protease stability score was determined as 2.04.

“SEETKNLEHWAKRFEHALETGDEEVLTKLFDPNVRLHFNGVNIHGWELYRKYHQRVDHVHFRIRSVHVYDGRVDMHTEVENRQGDKSHRMDTRLFAIKVNGVWLIESFEVH”: the protease stability score amounted to 0.486.

In turn, “SEEVEEAVTKMRHIWEHFLTGDEDTLKELVDPTVRLEQGDKEYHGRDFYIKYSEHIRRRFKNLKIIERDMKFTVYNGKAQMQFDGELRVGDKSTEVVIFLHMRKIDGRWFIEAERIEIR” showed a protease stability score of 1.38.

Regarding “SEEVEHAEKVMRHTVHNIETGDEETWSNLADPNVLFQQGEFNLHGRELMFEWVRKYYEKIKNARIEIEDVRVFDGQIEFDVTWRVGDKHLKVHLHIEVINGRITEVRVDEK”, the protease stability score came to 0.98.

“SEEYENAEKLTHHLTEILQTGDEQKLHELVDPHVKIHVDGVELHGMERYQELVDHWRIDSHTLHDFKIIGDKARVDSRVILTIGDKKERISLRFILVKIDGQWLNHEVEFN” showed a protease stability score of 1.79.

“SEEYKRVKHMFDLWLHALITGDEDLMEELADPHVRHDINGVKNHGWETLIDREREWRIKRIDHRRSDAVNGRMHSDVHIDGIFDGKRHETDVTIHMIVVNGKFKTVEIRYH” yielded a protease stability score of 1.08.

“SEFDEASREAHEWFVELSKTGDEHEVKKFFDPNMRIDWNGVELIGRDTASKFFHELRFEHVRMEDVKFIDGVLRLDSHSIVNVNGQRFETRDDIVIEKFNGQWILKSIRVE”: the protease stability score came out at 1.

In turn, “SEFDRLSKEAVDILVHSLETGDWRSVSELFDPDYRLDVGDKRYHGREKVNEFMRHMGIKHVEIKRIHLQGDKAHIDSRMLVDGREFITHVIMEKVNGRWVITHISIE” had a protease stability score of 1.01.

“SEFEEALKEHVKNIIRSVRTGDENELRRQLDPDAKLRINGQDYVGMEYVFHYLFEWRIHDTELKHIHVQGDKLTFNGETTGTYDGQKIHVRIRIIIWKVDGRWLSEHIDVI” displayed a protease stability score of 1.66.

The sequence “SEFEEIAHIMIRLFHHAMRTGDEHKLMKNFDPNTRIDVNGVEEHGRENLERHLHHLSRHLRVNDFKVKDVKDVDGRVVIDGIWNGEINGQETDVEVEVIIIKINGQWYIQHLKIK” showed a protease stability score of 1.03.

In turn, “SEFEHRAHEVLEIMSNALHTGDEERMQKLMDPNVRIVIGDKENIGRETFMYWVKEIRFEIEIHIHRIDVINGRIHADTRLRIIIHYNGREHRDHFDVHFDIQKVDGRWVVHRIIVD” gave a protease stability score of 2.1.

In turn, “SEFEKDSEHAARVLMHELHTGDFESLHELADPNDRNSLHIGDKHWFDHGRHWVRKWFERFKNATLIVEDIRLDVQGDKVRMEVDGHLNINGKHYRVHLIFILRKINGKWHVQQVDIHVD” displayed a protease stability score of 2.41.

Consider “SEFENLQRLWLEILEHHSETGDERFMSRLADPNAKLLVNGKEFHGMEEVVEFIERLWEKFKNVRVEIHDFTVQGNKIDMDVILYYGEKVHRTEMHAVKYDGRWFMRELSIR”, for which the protease stability score came out at 1.38.

On to “SEHDDLIRHYAERIRKSLLTGDEHDLTELLDPNTYFEVRIGDFTLKAHGWERVHEVLDMINENLGIKHDDIQHIEWYGDKIHIDTRVRIGDKEIHTEVIIVVINGKVSKIEHRVI”, for which the protease stability score amounted to 0.45.

Consider “SEHDEDLENAWRVIKHSTETGDEETSRELIDPNARIDINGKDLHGREEISRIFSEWRVHHIEIKHVEHVGNKVHIDGHEDINVDGRRMETRIELIITKINGKWLVHSIRYI”, for which the protease stability score came to 0.53.

“SEHDEELERWARLILHLLYTGNEEELRKMMDPDVRLNVNGRELHGWKKAMELWRIIKEHLRIHHVDIHDIDVFDGRNHVDIRINTNINGQEYIYKTEIIIVIIDGRMRSHEVRVK”: the protease stability score worked out at 1.74.

The sequence “SEHDEELRHASEKLWHDILTGDWKSIKELADPNVRVIIWQGEKEINLHGREEVTRVIKEMGFKHTHIEHQSTINGRMIVDNHSNINGKRVHLHFVIEKINGRWFLHEMRIEFE” gave a protease stability score of 1.47.

With “SEHDEHIEHLLKEIIEDIETGDWHHWRHLADPHTRMEVGDKEKHGWKVYFEILHRYRGARLEFKSVDVQGDKIHVETHVHVNGRSFDTELRFYIVNGKMQEVIIQFR”, the protease stability score is 0.85.

Take “SEHDEHLQRNWERFLHHIETGDWRDHEENADPHARVHIGEFDLHGREKFSELFMRLGVKHIEIQRLIVQGDKITADTVVHYGDKRLKTNIFVTKINGRWQLHSIEMR”: the protease stability score came out at 1.42.

The sequence “SEHDELLNRLSELLTHLILTGDWKTFSELADPNVLAITDINGRTRHHHGREHFLNLLEELLREFGIDHLWITHIDAFNGVSHTHVNIEVNGRTHELRLHIVIIDGKVHEVHFSFK” returned a protease stability score of 0.34.

“SEHDELVKRNLEEMIRAAETGDEEKLRQLMDPHVKLEVNGREFVGREHWERFFREVIHRFGVTRIEIILHRIHDIDGRIYVDGTEVYGDYFERSLWISLKVNGKWVITHQHIH” came in with a protease stability score of 0.336.

As for “SEHDEMIHKIAKEIMEVLVTGNEEWLDKLVDPHMRLEFNGKDIHGREKLNELLRKFKNVKLEYHINSIEAWDGRTQVNGKVHIEYGDKSRIKDTRLHVLIWDGKIREMRVDHD”, the protease stability score was 2.23.

Sequence “SEHDEQAEDWTRKHIHWFETGDEELLETLLDPNTRHIVDGQEYHGRENLRRMFHYLLSFMGIKYVRLTNHEVVGDKAHIHMTTNVNGQHTRLILHLIVINGRVHTIEIRVR” had a protease stability score of 0.544.

The sequence “SEHDERRRRVLELWFHALHTGDEEKLQELMDPDARLDINGVKLHGRDKLIEFFREWRFKHVDIHDMDEFNGVVNIKIEHVEIYNGQHRRVETRIFLIKINGRWHFRHIELH” had a protease stability score of 1.66.

Regarding “SEHDESIHRHFEKIHESIRTGDEELLRKFLDPNTLLVNEDEKVVGWEQWVEQVRRHLTELGAKHVSFSLHDRRFFDGRLHLDSRVIIEIGDKRLSLETEVINLKFNGRWIITSLTSS”, the protease stability score was 1.14.

Consider “SEHDEYAKKVVEIIWKDMLTGDEDKFSEMADPDVRLDIGDKHHHGMEEMTEILTRVYKHIRIEDWRIRDIRHINGKAVVDGHTTIEIGDKRIHRRVELIVIVIDGRLKTLEYRVH”, for which the protease stability score stood at 1.09.

“SEHDHHSEWMSRLMFEAWLTGDEDFIMHLADPNTRSHLHYGDKEVNLHGRESFKRMVEELHRELGANHRDLKEVRLQGDKSLLRLEVRVGDKRREQHIIIIIVNGRVKSITVEVR” registered a protease stability score of 0.874.

As to “SEHDKEMREWIKTLFELMYTGDWVILRELADPNAKFRQGDFTKIGREQYERHVRRHLDLLGHDNIEIHWEDVEIVGNYAVFHGHLTFNGKSTHVIIRVFVIDGRMKHEHVEIK”, the protease stability score was determined as 1.3.

“SEHDKFTREMSEMLIEALLTGDWRIFEELADPNMRFHQGEFHFHGREEVSHRMLELVDLLGADHYDVREIRFQGDKIHTHLEYYIGDKLFRVDLHAEKVNGKWHLTIVHVDSH” showed a protease stability score of 2.03.

As for “SEHDKVLRELINLLWEALATGDFDQLHKLLDPHVKLDIGEWHSHGRESFIKNWLDDIRRVKNVRYELRHMDVINGQAHLDIHESYDGVRYDSELIIFIIDGKIHEITVHIR”, the protease stability score was 0.83.

With “SEHDNLMKEKLTLMEHTLMTGDEEVWRELLDPEALTTVDGQHFHGREEVVKFLRKVRRRVDHITSIEIESIDPQGEKLHLDGRNRIKIDGREIELNVVIIMRKINGRWFLRSWNVV”, the protease stability score is 1.22.

In turn, “SEHDRLAHEWMRVFLHSIWTGDEDTILKMIDPHMRLDIDGVTFHGRDDVREWFHHHRERVDHIKDVDIKDVRIFDGKAETDRIVHVQVDGKEVDEEVLVILIVIDGRVTSIIIEKR” yielded a protease stability score of 1.12.

“SEHEDMFREMAELLLESLVTGDFRQLKRLADPHMRLKINGKDTHGREEFSRVFKELDDELGVDHIEIKHLRVQGDKIHIHGKMHFDGRWHERHVDVEIFNGVVRHHRVEIR” yielded a protease stability score of 1.3.

The sequence “SEHEEASERMTRLTLHLFETGNEEVFNRLADPHTRVIINGQEHVGRETVIEFLKKERDELGADVLIIKDIDVERQGEKVEVIFHGEIKFNGRYYKVEIIIIYLKVDGKWFIESMKHIVK” yielded a protease stability score of 2.37.

Take “SEHEEDARRIFERWINSVNTGDERLIYEMHDPHVRVEINGREFHGREEIHKLAHRIDHFKIHRIIERDVRLVNGRVELHGEIDYRFFFDGKELSSIHSLHMTLTKVNGRWSIEEERVK”: the protease stability score turned out to be 0.39.

Regarding “SEHEEDFKKATHEILEIWETGDEHRMSEYLDPNTRLSIDGKNIHGREKVEEILRRHWERLGIDHLRIKDLRVHTIDGRMHLDILVRFHYNGVTIDVHLHFNLIKIDGKWYIRSILEIDR”, the protease stability score is 0.418.

On to “SEHEEDLERFAREWIHIFKTGDFKMFNKLADPNVRVHINGKDNHGMEQWKHLKDRHEKELGVDRVDIHVDDVRFIGDKIEMDVTVRQGEFSTRWHVELIVVDGRLKHVSFHVR”, for which the protease stability score was 1.16.

For “SEHEEEARKASQESLHDLKTGDEDSFERLLDPNTRVIVLFDGREIIHVGREEVTRFISEWLKRYKGMRIEMQDVRVIDGRIDIHLKTDVDGKDHRLDIHSEKINGQWFLKSIFVDVH”, the protease stability score came out at 1.95.

Regarding “SEHEEELHKFFEEFLKAVETGDWRRLMELIDPHARLHIHQGEKEDHDHGRKFLKEFLKRYPNLRIQVTSLRIDVIDGVAIIILRGHDDVNGVELHSTIRIVVTKVNGQWRVEEVEIRIR”, the protease stability score was determined as 1.38.

With “SEHEEESHIAFEIYQKWVQTGDWEQLDHNFDPDTRVEINGVEHVGMEHFHELEKRLHEHLGISKINSHVKHFEIFDGRLELFTIMEFNGRRIRTHHIAHKVNGRWRIKSIRFE”, the protease stability score came to 1.43.

As to “SEHEEEVKHFIELIVHFLKTGDEDHLAKMADPHVRLHIGDKEFHGREDFSKWVHLLLHHWRLKTFILRRVHVQGEKAHIDGQLDFDVDGKKTLLDVHLTVRKIDGRWFIETVIDG”, the protease stability score came out at 2.35.

Turning to “SEHEEHIHKLMREWIEALLTGDEEHIEHLVDPHDRLNIDGRHYHGRENATKALHQKREQIRIEHIRVDDVKFYGDKVHVEMTVHGNINGKRIEIDTRFIIVVIDGVLRSFEFRHK”, the protease stability score was determined as 0.122.

The sequence “SEHEEHIKHLAEEWIRLVLTGNEEIIDHLFDPNVRVEIDGREMIGREKMNEWMRHVLRHWRTHIVIRRMTAIGDKAHSDGELILHVGDKTIRTKVHFHLVIIDGRIHEVSVDIR” had a protease stability score of 1.58.

Sequence “SEHEEHIKRHIEHVIHHWMTGNWEELLRLMDPNVRLILHIGDKEIHSIGMEEILRRLHEYKKKIKNATIHIDHIDMQGDKTTIHETIHIGDYVYDTRIILVIVNGRIKRIEYQVH” returned a protease stability score of 0.128.

The sequence “SEHEEHLKHISELMVKLFLTGDEELINHLADPDTRLNINGVHFIGREHAVKASKDFWDELGVNHIEIEDRKVINGRVTMTGHVHVGDKYRRTQNYLVVVNGRLKNVEWRID” returned a protease stability score of 0.806.

“SEHEEHVRSAIERLSHAWRTGNEELFKELVDPHTRFIYGNKNMHGWEISEFFRRRVKGMTLHEVDIHHVEVINGRVHVNSILRGEINGKDTFEDHELHARKVDGRWVVTEMTIR” displayed a protease stability score of 0.732.
